Where a chain is given by its changes, count along the chain named.
B1: 75110_03I08A (antibody, V domains shown)
VH: QVQLQESGPGLVKPSETLSLTCTVSGGSISSYYWSWIRQPPGKGLEWIGYIYYSGSTNYNPSLKSRVTISVDTSKNQFSLKLSSVTAADTAVYYCAREGEQWFYGLDVWGQGTTVTVSS
VL: EIVLTQSPGTLSLSPGERATLSCRASQSVSSTYLAWYQQKPGQAPRLLIYGSSSRATGIPDRFSGSGSGTDFTLTISRLEPEDFAVYYCQQYGNSFPITFGQGTRLEIK
notes: Tested as clonal hybridoma supernatant of an AlivaMab Mouse Kappa antibody (human variable regions, kappa; detected with anti-mouse Fc)
B2: 75110_04H17A (antibody, V domains shown)
VH: QVQLQESGPGLVKPSETLSLTCTVSGGSISTYYWSWIRQSAGKGLEWIGRIYTSERPNYNPSLKSRVTMSVDTSKNQFSLKLNSVSAADTAVYYCARELERPYYYGMDVWGQGTTVTVSS
VL: DVQMTQSPSSLSASVGGRVTITCQASQDISNYLNWYQQKPGKAPKLLIYYASNLETGVPSRFSGSGSGTDFTFTISSLQPEDFATYYCQQYDNLPLTFGGGTKVEIK
notes: as for B1
B3: 75110_05A11A (antibody, V domains shown)
VH: EVQLVESGGGLVKPGGSLTLSCAASGFTFSNTWMSWVRQAPGKGLEWVGRIKSKIDGGTTDYAAPVKGRFTISRDDSKNTLYLQMNSLKTEDTAVYYCTTSGTYSSGWGLFDYWGQGTLVTVSS
VL: B2 VL with V2I, G17D, Y50D, A51T, T56A, D70H, F73L, F83I, L96F, K103R
notes: as for B1
B4: 75110_04G02A (antibody, V domains shown)
VH: not shown
VL: DIVMTQSPDSLAVSLGERATINCKSSQSVLYSSNNKNYLAWYQQKPGQPPKLLFYWASARESGVPDRFSGSGSGTDFTLTISSLQAEDVALYYCQQYFGSFPTFGQGTKLEIK
notes: as for B1
B5: 75110_04K10A (antibody, V domains shown)
VH: EVQLVESGGGLVQPGGSLRLSCAASGFTFSSYWMSWVRQAPGKGLEWVANINQDGSEKYYVDSVKGRFTISRDNAKNSLYLQLNSLRAEDTAMYYCAREGGQWLSLDYWGQGTLVTVSS
VL: DIQMTQSPSSVSASVGDRVTITCRASQGISSWLAWYQQKPGKAPKVLIYGVSSFQSGVPSRFSGSGSGTDFILTISSLQPEDFATYYCQQANSFPWTFGQGTKVEIK
notes: as for B1
B6: 75110_03I23A (antibody, V domains shown)
VH: QVQLQESGPGLVKPSETLSLTCTASGGSITSYYWNWIRQPAGKGLEWIGRIYTSGSTNYNPSLKSRVTMSVDTSKNQFSLKLSSVTAADTAVYYCARDPGYSDAFNIWGQGTMVTVSS
VL: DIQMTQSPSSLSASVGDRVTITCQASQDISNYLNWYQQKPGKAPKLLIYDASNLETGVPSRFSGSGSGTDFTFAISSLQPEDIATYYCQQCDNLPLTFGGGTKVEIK
notes: as for B1
B7: 75110_04D20A (antibody, V domains shown)
VH: QVQLQESGPGLVKPSETLSLTCTVSNGSISDYYWSWIRQPAGKGLEWIGRIYTSGSTNYNPSLKSRITMSVDTSKNQFSLELSSVTAADTAVYYCARELERYYFYGVDVWGQGTTVTVSS
VL: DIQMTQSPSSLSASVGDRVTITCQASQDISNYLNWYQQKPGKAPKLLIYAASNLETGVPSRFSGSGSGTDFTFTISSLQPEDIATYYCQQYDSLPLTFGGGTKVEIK
notes: as for B1
B8: 75110_04B08A (antibody, V domains shown)
VH: QVQLVESGGGVVQPGRSLRLSCTASGFNFINYGIHWVRQAPGKGLEWVTIIWYDGSKKYYADSVKGRFAISRDNSKNTLYLQMNSLRAEDTAVYYCAREDDWNDGLAYWGQGTLVTVSS
VL: AIQMTQSPSSLSASVGDRVTITCRASQDIRNDLGWYQQKPGKAPNLLIYAASNLQSGVPSRFSGSGSGTDFTLTISSLQPEDFATYYCLQDSNYPRTFGQGTKVEIK
notes: as for B1
B9: 75110_04G16A (antibody, V domains shown)
VH: QVQLQESGPGLVKPSQTLSLTCTVSGDSISSGYYYWSWIRQHPGKGLEWIGYISYSGSTYYNPSLKSRLTISVNTSKNQFSLKLSSLTAADTAVYYCARDRPSNFDAFDIWGQGTMVTVSS
VL: EIVLTQSPGTLSLSPGERATLSCRASQSVGSTYLAWYQQKPGQAPRLLIYGAFSRATGIPDRFSGSGSGTDFTLTISRLEPEDFAVYYCQQYGSSPLTFGPGTKVDIK
notes: as for B1
B10: 75110_04F22A (antibody, V domains shown)
VH: EVQLVESGGGLVQPGGSLRLSCAASGFTFSSYDIHWVRQATGKGLEWVSTIGTAGDTYYPGSVKGRFTISRENAKNSLYLQMNSLRAGDTAVYYCARGGYYYYGMDVWGQGTTVTVSS
VL: B9 VL with G30Y, T32S, F53S, Y92F, S94T, L97F
notes: as for B1
B11: 75110_05K11A (antibody, V domains shown)
VH: B10 VH with I34M, A40P, G61A, Y100F
VL: B9 VL with A19V, G30S, S31N, F53S, A85V, Y92H, L97F
notes: as for B1
B12: 75110_04P06A (antibody, V domains shown)
VH: B10 VH with S31N, I34M, Y100D
VL: B9 VL with G9D, V29L, G30S, T32V, F53S, S77N, A85V, L97F
notes: as for B1
B13: 75110_05F19A (antibody, V domains shown)
VH: B10 VH with S31N, I34V, A40P, Y101D, M105L
VL: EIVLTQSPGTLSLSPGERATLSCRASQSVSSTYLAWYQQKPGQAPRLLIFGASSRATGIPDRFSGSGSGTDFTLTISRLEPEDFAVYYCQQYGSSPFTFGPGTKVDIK
notes: as for B1
B14: 75110_03L12A (antibody, V domains shown)
VH: QVQLQQWGAGLLKPSETLSLTCAVYGGSFSGYYWSWIRQPPGKGLEWIGEINHSGSTNYNPSLKSRVTISVDTSENQFSLTLISVTAADTAVYYCVRLINWFDPWGQGTLVTVSS
VL: DIQMTQSPSSVSASVGDRVTITCRASQDISNWLAWYQQKPGKAPKLLIFAASSLQSGVPSRFSGSGSGTDFTLTISSLQPDDFATYYCQQANSFPYTFGQGTNLGIK
notes: as for B1
B15: 75110_05B13A (antibody, V domains shown)
VH: QVLLEQWGAGLLKPSETLSLTCAVYGGSFSGYYWTWIRQPPGKGLEWIGEINHRGSTNYNPSLKSRVTISIDTSKNQFSLKVKSVTAADTAMYYCTRPDSNWFDPWGQGTLVTVSS
VL: B14 VL with D81E, Y96L, Q100G, N103K, L104V, G105E
notes: as for B1
B16: 75110_04P08A (antibody, V domains shown)
VH: QVQLQQWGAGLLKPSETLSLTCAVYGGSLSGYYWSWIRQSPGKGLEWIGEINQSGSTNYNPSLKSRVTISVDTSKDQFSLRLTSVTAADTAVYYCTRVLNWFDPWGRGTLVTVSS
VL: B14 VL with I21L, F49Y, P80T, D81E, N103K, G105E
notes: as for B1
B17: 75110_10O16A (antibody, V domains shown)
VH: B10 VH with S31N, Y32S, I34M, Y100L
VL: B9 VL with I2N, G30S, T32S, F53S, Q90H, Y92F, L97F
notes: Non-clonal AlivaMab Mouse Kappa hybridoma supernatant, captured by anti-mouse IgG Fc (human V regions, mouse Fc); also called 75110_10016A

molecular target: T1, human CD4 on human PBMCs (human, UniProt P01730 26-458); test: FACS, clonal hybridoma supernatant on PBMCs
T1 construct: whole, on cells; the CD4-positive gate was set with the control antibodies OKT4 and RPA-T4; also called hCD4

Row | % CD4 Stain [%] | gMFI of CD4+ [gMFI] | Binder
1 | 17.8 | 26100 | B1
2 | 28.8 | 151000 | B2
3 | 35.9 | 246000 | B3
4 | 38.5 | 187000 | B4
5 | 35.6 | 149000 | B5
6 | 26.2 | 67900 | B6
7 | 33.2 | 241000 | B7
8 | 40.6 | 246000 | B8
9 | 36.3 | 240000 | B9
10 | 37.7 | 216000 | B10
11 | 38.1 | 112000 | B11
12 | 36.9 | 241000 | B12
13 | 37.1 | 155000 | B13
14 | 36.8 | 162000 | B14
15 | 55.8 | 135000 | B15
16 | 36.4 | 128000 | B16

molecular target: T2, Recombinant human CD4 (R&D Systems, Cat. 10327-CD) (human, UniProt P01730 26-390, limits assumed); test: BLI (Octet Red384), non-clonal supernatant on AMC sensor, 100 nM human CD4, 1:1 local fit;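 further: hybridoma antibodies captured from supernatant, single CD4 concentration as analyte, association and dissociation phases fitted together, giving single-point kinetic estimates per supernatant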
T2 construct: Bought soluble recombinant protein used as analyte at 100 nM; also called huCD4

Row | Kd [pM] | koff [s⁻¹] | kon [M⁻¹ s⁻¹] | Binder
17 | < 1 | < 1e-07 | 64800 | B17

— patent publication US20220112288A1 (published 2022)
